The results in this text go back to article PMC8934654, “Structural characterization of the ANTAR antiterminator domain bound to RNA”.

Data set [1] has as its target T1, EutV (Enterococcus faecalis, UniProt A0A1Q1FU69 1-190).
T1 sequence: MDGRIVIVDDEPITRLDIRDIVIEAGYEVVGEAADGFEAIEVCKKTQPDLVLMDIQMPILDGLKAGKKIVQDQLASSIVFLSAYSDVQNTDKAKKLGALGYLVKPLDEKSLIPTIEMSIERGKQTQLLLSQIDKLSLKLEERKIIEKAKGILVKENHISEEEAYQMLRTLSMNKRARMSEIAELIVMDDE
The data set can be described thus: SPR. The settings on record: SPR: 10 mM HEPES pH 7, 150 mM NaCl, 0.05% Tween-20, 2.5 mM MgCl2, 4 C; EMSA: 25 mM HEPES pH 7.5, 150 mM NaCl, 10 mM MgCl2, 4 C, 25 nM RNA. Background: Mobility shift assays separate free from complexed probe on a gel.

The target of data set [2] is EutV R142A (Enterococcus faecalis, UniProt A0A1Q1FU69 1-190, R142A). The data set can be described thus: SPR; 2.5 mM MgCl2; SPR: 10 mM HEPES pH 7, 150 mM NaCl, 0.05% Tween-20, 2.5 mM MgCl2, 4 C; EMSA: 25 mM HEPES pH 7.5, 150 mM NaCl, 10 mM MgCl2, 4 C, 25 nM RNA. To be noted: protein: recombinant; chain copies: 2; label: 3' biotin-TEG; two hairpins with hexaloops P1 and P2. On the technique in general: In SPR one partner is held on a chip, and binding of the other changes the refractive index at the surface.

For data set [3], the target named is EutV E160A (Enterococcus faecalis, UniProt A0A1Q1FU69 1-190, E160A). The description is as above. To be noted: protein: recombinant; chain copies: 2; label: 3' biotin-TEG; two hairpins with hexaloops P1 and P2.
Data set [4] concerns the target EutV Y164A (Enterococcus faecalis, UniProt A0A1Q1FU69 1-190, Y164A). The description is as above. The settings on record: protein: recombinant; chain copies: 2; label: 3' biotin-TEG; two hairpins with hexaloops P1 and P2.
Data set [5] has as its target T1, EutV. The data set can be described thus: SPR; unphosphorylated, CM5 streptavidin chip, n=6; SPR: 10 mM HEPES pH 7, 150 mM NaCl, 0.05% Tween-20, 2.5 mM MgCl2, 4 C; EMSA: 25 mM HEPES pH 7.5, 150 mM NaCl, 10 mM MgCl2, 4 C, 25 nM RNA. The settings on record: protein: recombinant; tags: none (His-tag cleaved by TEV); chain copies: 2; label: 3' biotin-TEG; two hairpins with hexaloops P1 and P2.

Data set [6] deals with EutV N173A/R175A/R177A (Enterococcus faecalis, UniProt A0A1Q1FU69 1-190, N173A;R175A;R177A). The data set can be described thus: SPR; 2.5 mM MgCl2; SPR: 10 mM HEPES pH 7, 150 mM NaCl, 0.05% Tween-20, 2.5 mM MgCl2, 4 C; EMSA: 25 mM HEPES pH 7.5, 150 mM NaCl, 10 mM MgCl2, 4 C, 25 nM RNA. To be noted: protein: recombinant; chain copies: 2; label: 3' biotin-TEG; two hairpins with hexaloops P1 and P2.

In data set [7] the target is EutV M172A (Enterococcus faecalis, UniProt A0A1Q1FU69 1-190, M172A). The description is as above. The settings on record: protein: recombinant; chain copies: 2; label: 3' biotin-TEG; two hairpins with hexaloops P1 and P2.
The target in data set [8] is EutV K143A/K147A (Enterococcus faecalis, UniProt A0A1Q1FU69 1-190, K143A;K147A). The description is as above. The settings on record: protein: recombinant; chain copies: 2; label: 3' biotin-TEG; two hairpins with hexaloops P1 and P2.
Data set [9] concerns the target T1, EutV. The data set can be described thus: SPR; CAPture chip, 2.5 mM MgCl2, n=8; SPR: 10 mM HEPES pH 7, 150 mM NaCl, 0.05% Tween-20, 2.5 mM MgCl2, 4 C; EMSA: 25 mM HEPES pH 7.5, 150 mM NaCl, 10 mM MgCl2, 4 C, 25 nM RNA. The settings on record: protein: recombinant; tags: none (His-tag cleaved by TEV); chain copies: 2; label: 3' biotin-TEG; two hairpins with hexaloops P1 and P2.

For orientation: Kd means the equilibrium constant for the complex coming apart. For P2 hairpin, in [1], the Kd was determined as 3.1 µM.

In [1], P1 hairpin had a Kd of 6 µM.

B1: EutP RNA, 3' biotin (structured_RNA)
RNA: AGAAUCAGAAACACAAUGGCGUGUUUUAACAAAUCGGCAAAGGAGCCCAAG
B1: the binding signal was 8 fold reduction in affinity vs WT in [2], 60 fold reduction in affinity vs WT in data set [3], 55 fold reduction in affinity vs WT in data set [4] and 5 fold reduction in affinity vs WT in data set [8]. Moreover, the results for the Kd in data set [5] and in data set [9] were 2.2 ± 0.2 µM and 3.8 ± 2.1 µM, respectively. The binding result in [6] and in [7] was “no binding” throughout.
